From US20260125465A1 (BROAD INSTITUTE, published 2026)

Biological target: T1, soluble MSLN (Glu2-6-Gly580, Acro Bio Systems, MSN-H82E9-25 ug) (UniProt Q13421 296-580)
T1 construct: range 296-580; Detected with an anti-His secondary antibody in the CAR-T staining, so it carries a His tag; also called soluble mesothelin
Test: biolayer interferometry (BLI) with soluble MSLN
Protocol: Experiments were undertaken to characterize the ability of the anti-MSLN VHH antibodies to bind MSLN. 6×His tagged (SEQ ID NO: 93) VHH antibodies were produced by Genscript in a mammalian cell line and purified. The purified VHH antibodies were tested using a flow cytometry-based assay to see how well they bound mesothelin expressed on cells (FIG. 9A). […] Also, biolayer interferometry (BLI) was used to accurately assess the binding affinity (Kd) of the anti-MSLN VHH antibodies (Table 5). BLI was conducted with soluble MSLN (Glu2-6-Gly580, Acro Bio Systems, MSN-H82E9-25 ug). […] After exposure to the media containing the soluble MSLN, an anti-His secondary antibody was used to detect CAR-T cells binding the MSLN. T cells expressing CARs containing the anti-MSLN VHH antibodies or SS1 as antigen binding domains bound the soluble MSLN.

T1 sequence (Q13421 other isoform, or with tags, fused parts or gaps limits assumed): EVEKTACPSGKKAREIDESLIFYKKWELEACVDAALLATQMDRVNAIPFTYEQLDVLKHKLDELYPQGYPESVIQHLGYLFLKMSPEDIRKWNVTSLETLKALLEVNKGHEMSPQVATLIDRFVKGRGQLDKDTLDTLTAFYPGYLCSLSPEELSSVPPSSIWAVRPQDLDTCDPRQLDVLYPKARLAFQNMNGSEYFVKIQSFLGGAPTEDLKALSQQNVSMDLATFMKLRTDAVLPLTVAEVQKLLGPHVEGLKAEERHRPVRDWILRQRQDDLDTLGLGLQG

| Binder | Kd [nM] |
| --- | --- |
| Ab_113415 VHH antibody, 6×His tagged, purified (VHH, Produced by Genscript in a mammalian cell line and purified; The tag is written after the VHH only by convention) VHH: QVQLVESGGGLVQPGGSLRLSCAASGSMFSINAVAWYRQAPGEQREPVAAMTSGGSTIYADSVKGRFTISRDNAKNTVYLQMSSLKPEDTAVYYCNGGWSLAMDYWGQGTSVTVSH | 3.69 |
| Ab_119707 VHH antibody, 6×His tagged, purified (VHH, Produced by Genscript in a mammalian cell line and purified) VHH: EVQLVESGGGSVQAGETLRLSCTASGFTFDDSDMGWYRQAPGDECELVSTISSDGSTNYADSVKGRFTISQDNAKNTVYLQMTSLKPEDTAIYSCRTMASRIGCWGQGTLVTVSH | 5.95 |

Continued by falling Kd, values first:

| Kd [nM] | Binder |
| --- | --- |
| 11.5 | Ab_119706 VHH antibody, 6×His tagged, purified (VHH, Produced by Genscript in a mammalian cell line and purified) VHH: QLQLVESGGGLVQPGGSLRLSCAASGFTLDYYAIGWFRQAPGKEREGVSYISSSGGSTNYADSVKGRFTISRDNAKNTVYLQMNSLKPEDTGVYSCAAAGGYGNSSRYWGQGTSVTVSH |
| 5.32 | Ab_119702 VHH antibody, 6×His tagged, purified (VHH, Produced by Genscript in a mammalian cell line and purified) VHH: DVQLVESGGGLVQAGGSLRLSCAASGFPYFSCCMSWHRQAPGKDRELVSSISSDGSTHYADSVRGRFTISKGNARNTLYLQMNSLKPEDTAVYFCAASPRQLGPYYAMDYWGQGTSVTVSH |
| 4.49 | Ab_119704 VHH antibody, 6×His tagged, purified (VHH, Produced by Genscript in a mammalian cell line and purified) VHH: QLQLVESGGGLVQPGGSLRLSCAASGFTLDNYAIGWFRQAPGKEREGVSSISSSGGSTNYADSVKGRFTVSRDNAKHTVYLQMNSLKPEDTAVYYCAGVGDYGRRAMGQGTSVTVSH |
